According to patent publication US20240158538A1:
pKd: −log10 of the molar value.

Target: VISTA (analyte in the BLI assay with VSIG-3) (Homo sapiens (Human)) (UniProt Q9H7M9)
Assay: BLI (Octet QK384), 100 nM Fc-tagged VSIG-3 on anti-human Fc biosensor, VISTA from 3000 nM in solution

pKd: 5.28
Substance: Fc-tagged VSIG-3 (from UniProt Q5DX21 23-241) (Fc fusion)
